According to paper PMC9583931, “Emerin interacts with histone methyltransferases to regulate repressive chromatin at the nuclear periphery” (Frontiers in Cell and Developmental Biology, 2022):

B1: emerin (endogenous, wildtype myogenic progenitors) (natural protein, UniProt O08579 1-259, looked up)
chain: MDDYAVLSDTELAAVLRQYNIPHGPIVGSTRKLYEKKIFEYETQRRRLLPPNSSSSSFSYQFSDLDSAAVDSDMYDLPKKEDALLYQSKDYNDDYYEESYLTTKTYGEPESVGMSKSFRQPGTSLVDADTFHHQVRDDIFSSLEEEGKDRERLIYGQDSAYQSIAHYRPISNVSRSSLGLSYYPTSSTSSVSSSSSSPSSWLTRRAIRPEKQAPAAALGQDRQVPLWGQLLLFLVFAAFLLFVYYSIQAEEGNPFWMDP
notes: emerin, endogenous protein of H2K wildtype mouse myogenic progenitors; also called wildtype emerin; endogenous emerin; source: endogenous, H2K wildtype mouse myogenic progenitors, in lysate (soluble fraction)
B2: euchromatic histone lysine methyltransferase 2 (G9a) (enzyme, UniProt Q9Z148 1-1263, looked up)
chain: MRGLPRGRGLMRARGRGRAAPTGGRGRGRGGAHRGRGRPRSLLSLPRAQASWAPQLPAGLTGPPVPCLPSQGEAPAEMGALLLEKEPRGAAERVHSSLGDTPQSEETLPKANPDSLEPAGPSSPASVTVTVGDEGADTPVGAASLIGDEPESLEGDGGRIVLGHATKSFPSSPSKGGACPSRAKMSMTGAGKSPPSVQSLAMRLLSMPGAQGAATAGPEPSPATTAAQEGQPKVHRARKTMSKPSNGQPPIPEKRPPEVQHFRMSDDMHLGKVTSDVAKRRKLNSGSLSEDLGSAGGSGDIILEKGEPRPLEEWETVVGDDFSLYYDAYSVDERVDSDSKSEVEALAEQLSEEEEEEEEEEEEEEEEEEEEEEEEEDEESGNQSDRSGSSGRRKAKKKWRKDSPWVKPSRKRRKREPPRAKEPRGVNGVGSSGPSEYMEVPLGSLELPSEGTLSPNHAGVSNDTSSLETERGFEELPLCSCRMEAPKIDRISERAGHKCMATESVDGELLGCNAAILKRETMRPSSRVALMVLCEAHRARMVKHHCCPGCGYFCTAGTFLECHPDFRVAHRFHKACVSQLNGMVFCPHCGEDASEAQEVTIPRGDGGTPPIGTAAPALPPLAHDAPGRADTSQPSARMRGHGEPRRPPCDPLADTIDSSGPSLTLPNGGCLSAVGLPPGPGREALEKALVIQESERRKKLRFHPRQLYLSVKQGELQKVILMLLDNLDPNFQSDQQSKRTPLHAAAQKGSVEICHVLLQAGANINAVDKQQRTPLMEAVVNNHLEVARYMVQLGGCVYSKEEDGSTCLHHAAKIGNLEMVSLLLSTGQVDVNAQDSGGWTPIIWAAEHKHIDVIRMLLTRGADVTLTDNEENICLHWASFTGSAAIAEVLLNAQCDLHAVNYHGDTPLHIAARESYHDCVLLFLSRGANPELRNKEGDTAWDLTPERSDVWFALQLNRKLRLGVGNRAVRTEKIICRDVARGYENVPIPCVNGVDGEPCPEDYKYISENCETSTMNIDRNITHLQHCTCVDDCSSSNCLCGQLSIRCWYDKDGRLLQEFNKIEPPLIFECNQACSCWRSCKNRVVQSGIKVRLQLYRTAKMGWGVRALQTIPQGTFICEYVGELISDAEADVREDDSYLFDLDNKDGEVYCIDARYYGNISRFINHLCDPNIIPVRVFMLHQDLRFPRIAFFSSRDIRTGEELGFDYGDRFWDIKSKYFTCQCGSEKCKHSAEAIALEQSRLARLDPHPELLPDLSSLPPINT
notes: G9a (EHMT2), endogenous protein of mouse myogenic progenitors; also called EHMT2; source: endogenous, mouse myogenic progenitors, in lysate (soluble fraction)
B3: EZH2 (enzyme)
chain: not shown
notes: EZH2, endogenous protein of mouse myogenic progenitors; also called catalytic component of PRC2; source: endogenous, mouse myogenic progenitors, in lysate (soluble fraction)
B4: emerin S54F (EDMD1 mutant) (natural protein, UniProt P50402 1-254, looked up)
chain: MDNYADLSDTELTTLLRRYNIPHGPVVGSTRRLYEKKIFEYETQRRRLSPPSSFAASSYSFSDLNSTRGDADMYDLPKKEDALLYQSKGYNDDYYEESYFTTRTYGEPESAGPSRAVRQSVTSFPDADAFHHQVHDDDLLSSSEEECKDRERPMYGRDSAYQSITHYRPVSASRSSLDLSYYPTSSSTSFMSSSSSSSSWLTRRAIRPENRAPGAGLGQDRQVPLWGQLLLFLVFVIVLFFIYHFMQAEEGNPF
notes: emerin with the EDMD1-causing mutation S54F; also called S54F emerin
B5: emerin Q133H (EDMD1 mutant) (natural protein, UniProt P50402 1-254, looked up)
chain: MDNYADLSDTELTTLLRRYNIPHGPVVGSTRRLYEKKIFEYETQRRRLSPPSSSAASSYSFSDLNSTRGDADMYDLPKKEDALLYQSKGYNDDYYEESYFTTRTYGEPESAGPSRAVRQSVTSFPDADAFHHHVHDDDLLSSSEEECKDRERPMYGRDSAYQSITHYRPVSASRSSLDLSYYPTSSSTSFMSSSSSSSSWLTRRAIRPENRAPGAGLGQDRQVPLWGQLLLFLVFVIVLFFIYHFMQAEEGNPF
notes: emerin with the EDMD1-causing mutation Q133H; also called Q133H emerin

Experiments:
Conditions in all cases: partners not purified
[1] = molecular target: B2; test: co-IP; anti-G9a antibody on protein G magnetic beads, incubated overnight with the soluble fraction of sonicated whole-cell lysates (modified NEHN buffer, 500 mM NaCl, 1% NP-40) of proliferating myogenic progenitors; blot for emerin; densitometry, ratio of bound to input
EZH2 = molecular target: B3; test: co-IP; anti-EZH2 antibody on protein G magnetic beads, incubated overnight with the soluble fraction of sonicated whole-cell lysates (modified NEHN buffer, 500 mM NaCl, 1% NP-40) of proliferating myogenic progenitors; blot for emerin; densitometry, ratio of bound to input
[2] = molecular target: B1; test: co-IP; anti-emerin antibody on protein G magnetic beads, incubated overnight with the soluble fraction of sonicated whole-cell lysates (modified NEHN buffer, 500 mM NaCl, 1% NP-40) of proliferating myogenic progenitors; blot for G9a or EZH2; densitometry, ratio of bound to input
[3] = molecular target: B4; test: as above
[4] = molecular target: B5; test: as above

Chain of EZH2 (Q61188 whole entry): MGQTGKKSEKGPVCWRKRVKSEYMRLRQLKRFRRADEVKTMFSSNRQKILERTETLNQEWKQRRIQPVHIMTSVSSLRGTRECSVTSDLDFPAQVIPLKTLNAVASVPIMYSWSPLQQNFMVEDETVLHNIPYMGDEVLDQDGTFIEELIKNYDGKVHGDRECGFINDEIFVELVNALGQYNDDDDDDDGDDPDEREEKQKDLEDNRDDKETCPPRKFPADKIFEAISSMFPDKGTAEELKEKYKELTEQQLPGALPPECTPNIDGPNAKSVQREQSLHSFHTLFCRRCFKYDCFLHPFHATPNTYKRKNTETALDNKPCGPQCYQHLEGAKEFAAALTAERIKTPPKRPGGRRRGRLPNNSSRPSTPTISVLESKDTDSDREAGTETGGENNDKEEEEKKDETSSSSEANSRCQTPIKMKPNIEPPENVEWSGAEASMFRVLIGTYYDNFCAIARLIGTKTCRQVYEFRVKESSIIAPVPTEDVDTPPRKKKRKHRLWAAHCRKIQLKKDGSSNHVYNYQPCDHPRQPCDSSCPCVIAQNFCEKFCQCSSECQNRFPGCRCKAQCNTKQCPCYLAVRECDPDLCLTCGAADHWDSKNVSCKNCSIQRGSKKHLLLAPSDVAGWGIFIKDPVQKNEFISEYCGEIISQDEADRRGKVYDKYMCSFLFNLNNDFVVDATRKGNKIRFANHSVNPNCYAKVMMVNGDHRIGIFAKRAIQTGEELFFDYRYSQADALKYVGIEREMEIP

percent of input bound [1] | percent of input bound (EZH2) [%] | percent of input bound [2] [%] | percent of input bound [3] [%] | percent of input bound [4] [%] | Binder
0.76 % of input | 0.7 |  |  |  | B1
 |  | 0.2 | 13.8 | 9.6 | B2
 |  | 2.4 | 57.9 | 89.4 | B3
80.9 % of input | 71.8 |  |  |  | B4
45.1 % of input | 77.8 |  |  |  | B5
